Read-outs that look alike come from different tables or passages of the source.
B1: Humanized 103.2 (hu103.2) F(ab′)2 fragment (other)
VH: QVQMQQSGAEVKKPGASVKVSCKASGYAFTSYLIHWIKQRPGQGLEWIGVINPRSGDSHYNEKFKDRVTMTADQSISTAYMELSRLRSDDTAVYYCARSDYGAYWGQGTLVTVSS
VL: EIVLTQSPATLSVSPGERATLSCRASQSISNNLHWYQQKPGQAPRLLIKYASQSAFGIPARFSGSGSGTEFTLTISSLQSEDFAVYFCQQSNSWPHTFGQGTKLEIK
B2: Chimeric 103.2 F(ab′)2 fragment (other)
VH: QVQMQQSGAEVVRPGTSVKVSCKASGYAFTSYLIHWIKQRPGQGLEWIGVINPRSGDSHYNEKFKDRTTLTADQSSSTAYMQLSSLTSDDSAVYFCARSDYGAYWGQGTLVTVSS
VL: DIVLTQSPVTLSVTPGDSVSLSCRASQSISNNLHWYRQKSHESPRLLIKYASQSIFGIPSRFSGSGSGTEFTLSINSVETEDFGIYFCQQSNSWPHTFGTGTKLELK

What was measured:
[1] = molecular target: T1, Human BTN3A1 His-tagged antigen (Sino Biological Cat. No. 15973-H08H) (human, UniProt O00481 30-254); assay: SPR Biacore T200, single cycle kinetics, BTN3A1-His captured on anti-His CM5 chip, F(ab′)2 as analyte, bivalent analyte model (kd 2), 25 C
T1 construct: Bought recombinant protein; also called recombinant human BTN3A1-His; not shown: His tag
Protocol: (§1) Human BTN3A1 His-tagged antigen (Sino Biological, Beijing, China) was diluted in running buffer to a final concentration of 0.4 μg/mL. At the start of each cycle, human BTN3A1-His was captured onto Fc2 of CM5 sensor chip pre-coupled using a His capture kit (GE Healthcare, Little Chalfont, UK) with standard amine chemistry at a flow rate of 10 μL/min. An immobilization level (RL) of ˜34 RU, 16 RU or 11 RU, the different theoretical values to obtain a RMax of ˜50 RU was used for the analytes Fab, F(ab′)₂ and IgG respectively. The surface was then allowed to stabilize. Single cycle kinetic data was obtained with the purified samples (Fab, F(ab′)₂ and IgG) at a flow rate of 40 μL/min to minimize any potential mass transfer effects. The signal from the reference channel Fc1 (no antigen capture) was subtracted from that of Fc2 to correct for differences in non-specific binding to the reference surface. The signal for human BTN3A1-His blank runs (no analyte) were subtracted to correct for differences in surface stability. The association phase for the five injections of increasing concentrations was monitored for 240 seconds each time and a single dissociation phase was measured for 1400 seconds following the last injection of analyte. Regeneration of the chip surface was conducted using two injections of 10 mM glycine-HCL pH 1.5 followed by a stabilization period of 240 seconds.

[2] = molecular target: T1, Human BTN3A1 His-tagged antigen (Sino …); assay: BLI OctetRed96, F(ab′)2 loaded on FAB2G (anti-human CH1) sensors, human BTN3A1 as analyte 1.87-60 nM, 1:1 model, 30 C
Protocol: All runs (including loading, equilibration, association/dipping of sensors into analyte, dissociation and regeneration) were performed in black 96-well plates (Greiner) at 30° C. with shaking 1000 rpm using an OctetRed96 (ForteBio). […] The association of antibody or fragments with various concentrations of human BTN3A1 (60, 30, 15, 7.5, 3.75 and 1.87 nM) was monitored for 300 s, and the dissociation was followed for typically 500 s in kinetic buffer. Fitting of the data and constant measurements were performed with the Octet Red system software (version 7.1) using the 1:1 model. A control with an irrelevant antibody was used in order to assess the absence of non-specific binding of the target protein.

[3] = molecular target: T1, Human BTN3A1 His-tagged antigen (Sino …); assay: SPR Biacore T200, single cycle kinetics, BTN3A1-His captured on anti-His CM5 chip, F(ab′)2 as analyte, bivalent analyte model (ka 1), 25 C
Protocol: as §1

[4] = molecular target: T1, Human BTN3A1 His-tagged antigen (Sino …); assay: SPR Biacore T200, single cycle kinetics, BTN3A1-His captured on anti-His CM5 chip, F(ab′)2 as analyte, bivalent analyte model (kd 1), 25 C
Protocol: as §1

[5] = molecular target: Human BTN3A, membrane displayed on cells (human PBMCs, Daudi cells, SKOV-3 cells) (human), O00481; assay: cell-based or functional assay
[6] = molecular target: T1, Human BTN3A1 His-tagged antigen (Sino …); assay: SPR Biacore T200, single cycle kinetics, BTN3A1-His captured on anti-His CM5 chip, F(ab′)2 as analyte, bivalent analyte model (kd 1), 25 C; remark: listed apart in the source
Protocol: (§2) All single cycle kinetic experiments were run at 25° C. with HBS-P+ running buffer (pH 7.4) containing 0.1% BSA (GE Healthcare, Little Chalfont, UK).
(§3) Human BTN3A1 His-tagged antigen (Sino Biological, Beijing, China) was diluted in running buffer to a final concentration of 0.4 μg/mL. At the start of each cycle, BTN3A1-His was captured onto Fc2 of CM5 sensor chip pre-coupled using a His capture kit (GE Healthcare, Little Chalfont, UK) with standard amine chemistry at a flow rate of 10 μL/min. An immobilization level (RL) of ˜17 RU or 8 RU, the different theoretical values to obtain a RMax of ˜25 RU was used for the analytes Fab and F(ab′)₂ respectively. The surface was then allowed to stabilize. Single cycle kinetics data was obtained with the purified samples (Fab and F(ab′)₂)) at a flow rate of 40 μL/min to minimize any potential mass transfer effects. The signal from the reference channel Fc1 (no antigen capture) was subtracted from that of Fc2 to correct for differences in non-specific binding to the reference surface. […] The signal for BTN3A1-His blank runs (no analyte) were subtracted to correct for differences in surface stability. The association phase for the five injections of increasing concentrations was monitored for 240 seconds each time and a single dissociation phase was measured for 2000 seconds following the last injection of analyte. […]

[7] = molecular target: T1, Human BTN3A1 His-tagged antigen (Sino …); assay: SPR Biacore T200, single cycle kinetics, BTN3A1-His captured on anti-His CM5 chip, F(ab′)2 as analyte, bivalent analyte model (ka 1), 25 C; remark: listed apart in the source
Protocol: as §2, §3

[8] = molecular target: T1, Human BTN3A1 His-tagged antigen (Sino …); assay: SPR Biacore T200, single cycle kinetics, BTN3A1-His captured on anti-His CM5 chip, F(ab′)2 as analyte, bivalent analyte model (kd 2), 25 C; remark: listed apart in the source
Protocol: as §2, §3

T1 sequence (O00481 30-254 limits assumed): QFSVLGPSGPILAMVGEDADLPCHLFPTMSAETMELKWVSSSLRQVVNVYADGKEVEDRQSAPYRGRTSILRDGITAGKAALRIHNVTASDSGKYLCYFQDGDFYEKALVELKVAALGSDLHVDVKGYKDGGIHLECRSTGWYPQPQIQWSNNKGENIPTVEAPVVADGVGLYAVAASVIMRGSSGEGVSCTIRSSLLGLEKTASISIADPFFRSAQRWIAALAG

Binder | kd 2 [1] [s⁻¹] | Kd [2] [pM] | koff [2] [s⁻¹] | kon [2] [M⁻¹ s⁻¹] | kon [3] [M⁻¹ s⁻¹] | koff [4] [s⁻¹] | % CD25+ of Vγ9Vδ2 T cells within PBMCs, 67 nM, 5 days [5] [%] | % CTV dilution of Vγ9Vδ2 T cells within PBMCs, 67 nM, 5 days [5] [%] | EC50 (nM) in Vγ9Vδ2 T cell degranulation assay (CD107) against Daudi [5] [nM] | EC50 (nM) in Vγ9Vδ2 T cell degranulation assay (CD107) against SKOV-3 [5] [nM] | koff [6] [s⁻¹] | % CD107+ of Vγ9Vδ2 T cells, co-culture with Daudi cells, fragment at 10 µg/mL [5] [%] | kon [7] [M⁻¹ s⁻¹] | kd 2 [8] [s⁻¹]
B1 | 35.9 | 1230 | 0.000243 | 198000 | 689000 | 0.00162 | 43.2 | 42 | 0.0005 | 0.0005 | – | – | – | –
B2 | – | – | – | – | – | – | – | – | – | – | 0.00112 | 40.8 | 213000 | 34.1
